Source: US20120244144A1 (University of Texas, published 2012)
Residue numbers refer to the chain shown, from its start.

Legend:
[1] = molecular target: pertussis toxin B-oligomer (Bordetella pertussis), P04978; test: SPR BIAcore 3000, mAb 1B7 immobilised ~1000 RU; settings: remark: other sources report otherwise
[2] = molecular target: pertussis toxin holotoxin (Bordetella pertussis), P04977; test: SPR BIAcore 3000, mAb 1B7 immobilised ~1000 RU; settings: remark: other sources report otherwise
[3] = molecular target: PTx-S1-220, truncated recombinant S1 subunit (residues 1-220) (Bordetella pertussis strain Tohama I), P04977; test: SPR BIAcore 3000, mAb 1B7 immobilised ~1000 RU; settings: remark: other sources report otherwise
[4] = molecular target: pertussis toxin B-oligomer (Bordetella pertussis), P04978; test: ELISA repeated with mAb 1B7; settings: remark: other sources report otherwise
[5] = molecular target: T1, PTx-S1-220 Y166A (Bordetella pertussis strain Tohama I, UniProt P04977 36-255, Y166A); test: SPR, mAb 1B7 immobilised ~1000 RU
T1 sequence: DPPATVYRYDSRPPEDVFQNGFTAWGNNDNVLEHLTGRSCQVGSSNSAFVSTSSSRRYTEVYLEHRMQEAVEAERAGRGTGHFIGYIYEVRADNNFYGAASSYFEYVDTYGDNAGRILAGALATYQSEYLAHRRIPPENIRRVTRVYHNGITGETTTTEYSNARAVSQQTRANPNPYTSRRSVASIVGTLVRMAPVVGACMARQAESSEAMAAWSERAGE

[6] = molecular target: T2, PTx-S1-220 Y148A (Bordetella pertussis strain Tohama I, UniProt P04977 36-255, Y148A); test: SPR, mAb 1B7 immobilised ~1000 RU
T2 sequence: T1 sequence with Y147A, A165Y

[7] = molecular target: T3, PTx-S1-220 T81A (Bordetella pertussis strain Tohama I, UniProt P04977 36-255, T81A); test: SPR, mAb 1B7 immobilised ~1000 RU
T3 sequence: T1 sequence with T80A, A165Y

[8] = molecular target: T4, PTx-S1-220 N150A (Bordetella pertussis strain Tohama I, UniProt P04977 36-255, N150A); test: SPR, mAb 1B7 immobilised ~1000 RU
T4 sequence: T1 sequence with N149A, A165Y

[9] = molecular target: T5, PTx-S1-220 N176A (Bordetella pertussis strain Tohama I, UniProt P04977 36-255); test: SPR, mAb 1B7 immobilised ~1000 RU
T5 chain: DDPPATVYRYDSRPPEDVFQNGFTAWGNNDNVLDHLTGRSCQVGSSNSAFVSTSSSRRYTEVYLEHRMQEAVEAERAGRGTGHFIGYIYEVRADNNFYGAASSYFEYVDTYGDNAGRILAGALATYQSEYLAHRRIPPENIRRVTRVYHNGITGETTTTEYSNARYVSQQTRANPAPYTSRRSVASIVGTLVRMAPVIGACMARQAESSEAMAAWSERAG

[10] = molecular target: T6, PTx-S1 9K/129G (1-220) (Bordetella pertussis, UniProt P04977 36-255, R9K; E129G); test: SPR BIAcore 3000, mAb 1B7 immobilised ~1000 RU
T6 construct: also called R9K, E129G variant
T6 sequence: T1 sequence with R8K, E128G, A165Y

[11] = molecular target: T7, PTx-S1A (1-220) (Bordetella pertussis, UniProt P04977 36-255, M194I); test: SPR BIAcore 3000, mAb 1B7 immobilised ~1000 RU
T7 sequence: T1 sequence with A165Y, M193I

[12] = molecular target: T8, PTx-S1D (1-220) (Bordetella pertussis, UniProt P04977 35-254); test: SPR BIAcore 3000, mAb 1B7 immobilised ~1000 RU
T8 chain: T5 chain with D34E, A176N, I198V

[13] = molecular target: pertussis toxin holotoxin (Bordetella pertussis), P04977; test: competition ELISA (Friguet), 5 nM antibody, soluble PT; settings: remark: other sources report otherwise

B1: monoclonal antibody 1B7 (antibody)
chain: DIQMTQSPALMSASPGEKVTMTCSASSSVSFMYWYQQKPRSSPKPWIYLTSNLPSGVPARFSGSGSGTSYSLTISSMEAEDAATYYCQQWSSHPPTFGSGTKLEIKRGGGGSGGGGSGGGGSGGGGSEVQLQQSGSELVRPGASVKLSCKASGYKFTSYWMHWVKQRPGQGLEWIGNIFPGSGSTNYDEKFNSKATLTVDTSSNTAYMQLSSLTSEDSAVYYCTRWLSGAYFDYWGQGTTLTVSSASGA
notes: also called mAb 1B7; 1B7 mAb
koff [1]: 0.0027 s⁻¹
koff [2]: 0.0004 s⁻¹
koff [3]: 0.0014 s⁻¹
EC50-PTx (%) [4]: 30%
koff [5]: 0.0014 s⁻¹
koff [6]: 0.029 s⁻¹
koff [7]: 0.0017 s⁻¹
koff [8]: 0.008 s⁻¹
koff [9]: 0.0011 s⁻¹
koff [10]: 0.0016 s⁻¹
koff [11]: 0.00071 s⁻¹
koff [12]: 0.00095 s⁻¹
Kd [13]: 1.1 nM
